Publication PMC6546054 (Genes & Development, 2019)
Values belong to the molecule of their own block, whether it stands above or below them.

B1: His6IraD (wild type) (natural protein, E. coli K12, UniProt P39375 1-130, looked up)
chain: MMRQSLQAVLPEISGNKTSSLRKSVCSDLLTLFNSPHSALPSLLVSGMPEWQVHNPSDKHLQSWYCRQLRSALLFHEPRIAALQVNLKEAYCHTLAISLEIMLYHDDEPLTFDLVWDNGGWRSATLENVS

Columns and labels:
[1] = biological target: RssB (wild type) (E. coli K12) (UniProt P0AEV1); assay: cross-linking
[2] = biological target: T1, RssB (wild type) (E. coli K12, UniProt P0AEV1 1-337); assay: pull-down
T1 sequence (looked up): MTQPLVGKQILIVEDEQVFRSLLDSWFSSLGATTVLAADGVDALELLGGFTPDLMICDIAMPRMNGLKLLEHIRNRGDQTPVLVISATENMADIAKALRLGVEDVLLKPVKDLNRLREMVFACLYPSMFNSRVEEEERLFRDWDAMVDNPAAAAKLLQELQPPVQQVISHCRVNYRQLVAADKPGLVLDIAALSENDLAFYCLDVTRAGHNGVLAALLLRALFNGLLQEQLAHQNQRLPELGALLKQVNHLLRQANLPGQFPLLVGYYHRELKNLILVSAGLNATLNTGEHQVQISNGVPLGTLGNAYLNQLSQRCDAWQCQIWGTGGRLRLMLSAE

[3] = biological target: T2, RssB^AAA (E. coli K12, UniProt P0AEV1 1-337, E134-E137 to EAAA); assay: pull-down
T2 sequence (looked up): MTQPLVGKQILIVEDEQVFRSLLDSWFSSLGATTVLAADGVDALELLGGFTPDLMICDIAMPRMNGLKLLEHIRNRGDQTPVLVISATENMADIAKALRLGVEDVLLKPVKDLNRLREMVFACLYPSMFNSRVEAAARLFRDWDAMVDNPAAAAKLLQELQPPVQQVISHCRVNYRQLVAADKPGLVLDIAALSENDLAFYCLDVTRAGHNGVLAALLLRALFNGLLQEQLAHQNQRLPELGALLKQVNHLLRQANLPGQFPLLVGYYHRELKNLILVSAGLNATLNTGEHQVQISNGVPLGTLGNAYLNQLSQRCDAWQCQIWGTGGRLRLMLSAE

[4] = biological target: T3, RssB^(Q254A N256A) (E. coli K12, UniProt P0AEV1 1-337, Q254A | N256A); assay: pull-down
T3 sequence (looked up): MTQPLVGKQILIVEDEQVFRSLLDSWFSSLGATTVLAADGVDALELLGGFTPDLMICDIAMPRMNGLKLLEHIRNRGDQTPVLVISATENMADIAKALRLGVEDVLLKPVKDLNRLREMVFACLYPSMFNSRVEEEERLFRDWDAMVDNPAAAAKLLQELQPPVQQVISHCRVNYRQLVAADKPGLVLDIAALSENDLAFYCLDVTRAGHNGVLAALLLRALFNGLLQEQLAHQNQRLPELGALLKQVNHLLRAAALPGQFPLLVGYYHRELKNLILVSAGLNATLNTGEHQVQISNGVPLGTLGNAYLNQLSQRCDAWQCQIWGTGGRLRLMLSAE

[5] = biological target: T4, RssB^R115A (E. coli K12, UniProt P0AEV1 1-337, R115A); assay: pull-down
T4 sequence (looked up): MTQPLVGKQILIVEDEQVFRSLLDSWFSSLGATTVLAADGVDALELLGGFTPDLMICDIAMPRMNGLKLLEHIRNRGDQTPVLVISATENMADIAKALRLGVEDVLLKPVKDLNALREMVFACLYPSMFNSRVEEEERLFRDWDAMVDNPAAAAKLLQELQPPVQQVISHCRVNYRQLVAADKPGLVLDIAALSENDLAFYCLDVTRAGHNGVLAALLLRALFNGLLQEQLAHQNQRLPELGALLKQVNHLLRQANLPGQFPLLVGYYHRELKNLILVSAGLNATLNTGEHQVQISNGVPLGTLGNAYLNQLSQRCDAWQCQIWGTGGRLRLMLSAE

[6] = biological target: the molecule itself; assay: cross-linking
[7] = biological target: B1; assay: pull-down

- stoichiometry N [1]: 2
Molecule: RssB (wild type) (from UniProt P0AEV1 1-337) (natural protein)

Molecule: B1
- binding result [2]: binds
- binding result [3]: binds
- binding result [4]: binds
- binding result [5]: binds

B2: RssB^CC (natural protein, E. coli K12, UniProt P0AEV1 1-337, looked up)
chain: MTQPLVGKQILIVEDEQVFRSLLDSWFSCLGATTVLAADGVDALELLGGFTPDLMICDIAMPRMNGLKLLEHIRNRGDQTPVLVISATENMADIAKALRLGVEDVLLKPVKDLNRLREMVFACLYPSMFNSRVEEEERLFRDWDAMVDNPAAAAKLLQELQPPVQQVISHCRVNYRQLVAADKPGLVLDIAALSENDLAFYCLDVTRAGHNGVLAALLLRALFNGLLQCQLAHQNQRLPELGALLKQVNHLLRQANLPGQFPLLVGYYHRELKNLILVSAGLNATLNTGEHQVQISNGVPLGTLGNAYLNQLSQRCDAWQCQIWGTGGRLRLMLSAE
- stoichiometry N [6]: 2

- binding relative to wild type [7]: 18 ± 3%
B3: RssB^D104N (natural protein, E. coli K12, UniProt P0AEV1 1-337, looked up)
chain: MTQPLVGKQILIVEDEQVFRSLLDSWFSSLGATTVLAADGVDALELLGGFTPDLMICDIAMPRMNGLKLLEHIRNRGDQTPVLVISATENMADIAKALRLGVENVLLKPVKDLNRLREMVFACLYPSMFNSRVEEEERLFRDWDAMVDNPAAAAKLLQELQPPVQQVISHCRVNYRQLVAADKPGLVLDIAALSENDLAFYCLDVTRAGHNGVLAALLLRALFNGLLQEQLAHQNQRLPELGALLKQVNHLLRQANLPGQFPLLVGYYHRELKNLILVSAGLNATLNTGEHQVQISNGVPLGTLGNAYLNQLSQRCDAWQCQIWGTGGRLRLMLSAE
